These results are taken from patent publication US20210338838A1 (UNIVERSITY OF UTAH RESEARCH FOUNDATION, published 2021).

Where a chain is given by its changes, count along the chain named.

The chains are these.
B1: CFH-Del (CFH of the CFHR3/1 deletion haplotype, V62-Y402-E936) (other)
chain: EDCNELPPRRNTEILTGSWSDQTYPEGTQAIYKCRPGYRSLGNVIMVCRKGEWVALNPLRKCQKRPCGHPGDTPFGTFTLTGGNVFEYGVKAVYTCNEGYQLLGEINYRECDTDGWTNDIPICEVVKCLPVTAPENGKIVSSAMEPDREYHFGQAVRFVCNSGYKIEGDEEMHCSDDGFWSKEKPKCVEISCKSPDVINGSPISQKIIYKENERFQYKCNMGYEYSERGDAVCTESGWRPLPSCEEKSCDNPYIPNGDYSPLRIKHRTGDEITYQCRNGFYPATRGNTAKCTSTGWIPAPRCTLKPCDYPDIKHGGLYHENMRRPYFPVAVGKYYSYYCDEHFETPSGSYWDHIHCTQDGWSPAVPCLRKCYFPYLENGYNQNYGRKFVQGKSIDVACHPGYALPKAQTTVTCMENGWSPTPRCIRVKTCSKSSIDIENGFISESQYTYALKEKAKYQCKLGYVTADGETSGSITCGKDGWSAQPTCIKSCDIPVFMNARTKNDFTWFKLNDTLDYECHDGYESNTGSTTGSIVCGYNGWSDLPICYERECELPKIDVHLVPDRKKDQYKVGEVLKFSCKPGFTIVGPNSVQCYHFGLSPDLPICKEQVQSCGPPPELLNGNVKEKTKEEYGHSEVVEYYCNPRFLMKGPNKIQCVDGEWTTLPVCIVEESTCGDIPELEHGWAQLSSPPYYYGDSVEFNCSESFTMIGHRSITCIHGVWTQLPQCVAIDKLKKCKSSNLIILEEHLKNKKEFDHNSNIRYRCRGKEGWIHTVCINGRWDPEVNCSMAQIQLCPPPPQIPNSHNMTTTLNYRDGEKVSVLCQENYLIQEGEEITCKDGRWQSIPLCVEKIPCSQPPQIEHGTINSSRSSQESYAHGTKLSYTCEGGFRISEENETTCYMGKWSSPPQCEGLPCKSPPEISHGVVAHMSDSYQYGEEVTYKCFEGFGIDGPAIAKCLGEKWSHPPSCIKTDCLSLPSFENAIPMGEKKDVYKAGEQVTYTCATYYKMDGASNVTCINSRWTGRPTCRDTSCVNPPTVQNAYIVSRQMSKYPSGERVRYQCRSPYEMFGDEEVMCLNGNWTEPPQCKDSTGKCGPPPPIDNGDITSFPLSVYAPASSVEYQCQNLYQLEGNKRITCRNGQWSEPPKCLHPCVISREIMENYNIALRWTAKQKLYSRTGESVEFVCKRGYRLSSRSHTLRTTCWDGKLEYPTCAKR
notes: also called 3,1 Deletion (Del)
B2: CFH-Neu (neutral variant of full-length CFH, V62-Y402-D936) (other)
chain: B1 chain with E918D
notes: also called Neutral (Neu)
B3: CFHT-Neu/Del (truncated CFH of the neutral and deletion haplotypes, V62-Y402) (other)
chain: EDCNELPPRRNTEILTGSWSDQTYPEGTQAIYKCRPGYRSLGNVIMVCRKGEWVALNPLRKCQKRPCGHPGDTPFGTFTLTGGNVFEYGVKAVYTCNEGYQLLGEINYRECDTDGWTNDIPICEVVKCLPVTAPENGKIVSSAMEPDREYHFGQAVRFVCNSGYKIEGDEEMHCSDDGFWSKEKPKCVEISCKSPDVINGSPISQKIIYKENERFQYKCNMGYEYSERGDAVCTESGWRPLPSCEEKSCDNPYIPNGDYSPLRIKHRTGDEITYQCRNGFYPATRGNTAKCTSTGWIPAPRCTLKPCDYPDIKHGGLYHENMRRPYFPVAVGKYYSYYCDEHFETPSGSYWDHIHCTQDGWSPAVPCLRKCYFPYLENGYNQNYGRKFVQGKSIDVACHPGYALPKAQTTVTCMENGWSPTPRCIRVSFTL

In the first experiment the target is T1, MDA-modified LDL particles.
T1 construct: Not a plain protein; also called MDA-LDL; MDA adducts
In words: relative MDA-binding assay, detection antibody AbCam OX-24 (#Ab112197).
As to B1, the “Binding Potential” value came out at 43.
Take B2: the “Binding Potential” value was 39.
Still for that read-out and setting: for B3 the value was 28.

In the next experiment the target is T2, monomeric C-reactive protein (CRP) (UniProt P02741 19-224).
T2 sequence (looked up): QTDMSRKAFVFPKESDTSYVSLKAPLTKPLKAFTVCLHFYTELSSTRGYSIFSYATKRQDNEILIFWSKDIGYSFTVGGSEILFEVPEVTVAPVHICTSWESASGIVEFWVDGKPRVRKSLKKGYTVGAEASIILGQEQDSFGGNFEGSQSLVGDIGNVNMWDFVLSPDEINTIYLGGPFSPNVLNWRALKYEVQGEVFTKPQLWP
In words: relative CRP-binding assay, percent of CFH-Risk, detection antibody AbCam OX-24 (#Ab112197).
For B1, the “% FH-Risk” value was 972%.
Consider B2, for which the “% FH-Risk” value was 956%.
Consider B3, for which the “% FH-Risk” value stood at 6870%.

A further experiment addresses T2, monomeric C-reactive protein (CRP). In words: relative CRP-binding assay, detection antibody AbCam OX-24 (#Ab112197).
Turning to B1, the “Binding Potential” value stood at 14.
Still for that read-out and setting: for B2 the value was 14.
The same measure, in the same setting: next, B3: 101.

The target in a further experiment is T1, MDA-modified LDL particles. In words: relative MDA-binding assay, percent of CFH-Risk, detection antibody AbCam OX-24 (#Ab112197).
On to B1, for which the “% FH-Risk” value turned out to be 145%.
The same measure, in the same setting: for B2 the value was 130%; for B3, 94%.
